According to article PMC6258710, “Architecture and subunit arrangement of the complete Saccharomyces cerevisiae COMPASS complex” (Scientific Reports, 2018):

T1: Set1 (S. cerevisiae, UniProt P38827 1-1080)
T1 construct: Set1, histone H3K4 methyltransferase subunit of COMPASS, S. cerevisiae, full length; also called TAP-Set1; TAP-SET1; source: S. cerevisiae (strain yCOS2), overexpressed from the GAL1-10 promoter with the six Cps subunits; in lysate for the TAP purification; then purified as the COMPASS complex (IgG-Sepharose, TEV, calmodulin-Sepharose, glycerol gradient or GraFix); not shown: TAP, N-terminal, kept
T1 sequence (looked up): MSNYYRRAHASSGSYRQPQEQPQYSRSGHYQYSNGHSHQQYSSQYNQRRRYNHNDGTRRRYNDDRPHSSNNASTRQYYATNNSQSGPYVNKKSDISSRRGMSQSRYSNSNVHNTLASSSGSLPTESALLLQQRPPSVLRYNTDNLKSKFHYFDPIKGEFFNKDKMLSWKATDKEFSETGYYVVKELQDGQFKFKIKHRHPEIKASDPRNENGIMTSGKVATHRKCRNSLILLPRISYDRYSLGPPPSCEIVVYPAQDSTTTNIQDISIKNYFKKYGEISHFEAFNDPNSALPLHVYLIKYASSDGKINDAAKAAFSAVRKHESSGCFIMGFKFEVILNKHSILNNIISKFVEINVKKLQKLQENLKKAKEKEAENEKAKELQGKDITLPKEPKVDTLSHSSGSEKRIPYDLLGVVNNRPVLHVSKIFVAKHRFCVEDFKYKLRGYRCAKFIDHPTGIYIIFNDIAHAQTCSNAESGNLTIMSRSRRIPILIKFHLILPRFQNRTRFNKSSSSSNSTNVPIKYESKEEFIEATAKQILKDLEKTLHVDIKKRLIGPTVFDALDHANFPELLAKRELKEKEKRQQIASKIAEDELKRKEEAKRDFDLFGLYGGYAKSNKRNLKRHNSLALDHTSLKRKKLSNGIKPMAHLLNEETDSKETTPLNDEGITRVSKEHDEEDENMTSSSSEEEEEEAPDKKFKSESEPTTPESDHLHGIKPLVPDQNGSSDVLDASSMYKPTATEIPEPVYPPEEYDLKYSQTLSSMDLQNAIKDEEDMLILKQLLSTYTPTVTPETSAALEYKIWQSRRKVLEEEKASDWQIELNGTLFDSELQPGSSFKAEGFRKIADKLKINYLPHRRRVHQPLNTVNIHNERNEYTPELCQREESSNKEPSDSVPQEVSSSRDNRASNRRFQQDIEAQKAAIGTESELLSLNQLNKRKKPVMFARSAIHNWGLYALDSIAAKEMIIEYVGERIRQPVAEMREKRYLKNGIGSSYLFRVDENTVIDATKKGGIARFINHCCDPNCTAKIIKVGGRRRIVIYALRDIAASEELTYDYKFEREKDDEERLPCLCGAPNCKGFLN

B1: Cps50/Swd1 (natural protein, S. cerevisiae, UniProt P39706 1-426, looked up)
chain: MNILLQDPFAVLKEHPEKLTHTIENPLRTECLQFSPCGDYLALGCANGALVIYDMDTFRPICVPGNMLGAHVRPITSIAWSPDGRLLLTSSRDWSIKLWDLSKPSKPLKEIRFDSPIWGCQWLDAKRRLCVATIFEESDAYVIDFSNDPVASLLSKSDEKQLSSTPDHGYVLVCTVHTKHPNIIIVGTSKGWLDFYKFHSLYQTECIHSLKITSSNIKHLIVSQNGERLAINCSDRTIRQYEISIDDENSAVELTLEHKYQDVINKLQWNCILFSNNTAEYLVASTHGSSAHELYIWETTSGTLVRVLEGAEEELIDINWDFYSMSIVSNGFESGNVYVWSVVIPPKWSALAPDFEEVEENVDYLEKEDEFDEVDEAEQQQGLEQEEEIAIDLRTREQYDVRGNNLLVERFTIPTDYTRIIKMQSS
notes: Cps50/Swd1, WD40 repeat subunit of COMPASS, S. cerevisiae, full length; source: S. cerevisiae (strain yCOS2), overexpressed from the GAL1-10 promoter; in lysate for the TAP purification; then co-purified with TAP-Set1 as the COMPASS complex
B2: Cps40/Spp1 (natural protein, S. cerevisiae, UniProt Q03012 1-353, looked up)
chain: MSLPQWCPPHSTLKRNPTTGEDVYCICKRPDYGELMVGCDGCDDWFHFTCLHIPEQFKDLVFSFYCPYCQAGITGKNKDAIINGEGSLPKTLWKRKCRISDCYKPCLQDSKYCSEEHGREFVNDIWSRLKTDEDRAVVKKMVEQTGHIDKFKKFGQLDFIDNNIVVKTDDEKEIFDQIVVRDMTLKTLEDDLQEVQEISLPLFKKKLELLEVYLGWLDNVYTEMRKLDDDAASHVECGKEDSKGTKRKKKKNSSRSRARKNICGYCSTYERIPCSVEEFVRDFGSNEEATKIHEVCTKWKCNRHLDWVSTNQEQYLQQIDSLESMQERLQHLIQARKKQLNIQYYEEILRRGL
notes: Cps40/Spp1, subunit of COMPASS, S. cerevisiae, full length; source: S. cerevisiae (strain yCOS2), overexpressed from the GAL1-10 promoter; in lysate for the TAP purification; then co-purified with TAP-Set1 as the COMPASS complex
B3: Cps60/Bre2 (natural protein, S. cerevisiae, UniProt P43132 1-505, looked up)
chain: MKLGIIPYQEGTDIVYKNALQGQQEGKRPNLPQMEATHQIKSSVQGTSYEFVRTEDIPLNRRHFVYRPCSANPFFTILGYGCTEYPFDHSGMSVMDRSEGLSISRDGNDLVSVPDQYGWRTARSDVCIKEGMTYWEVEVIRGGNKKFADGVNNKENADDSVDEVQSGIYEKMHKQVNDTPHLRFGVCRREASLEAPVGFDVYGYGIRDISLESIHEGKLNCVLENGSPLKEGDKIGFLLSLPSIHTQIKQAKEFTKRRIFALNSHMDTMNEPWREDAENGPSRKKLKQETTNKEFQRALLEDIEYNDVVRDQIAIRYKNQLFFEATDYVKTTKPEYYSSDKRERQDYYQLEDSYLAIFQNGKYLGKAFENLKPLLPPFSELQYNEKFYLGYWQHGEARDESNDKNTTSAKKKKQQQKKKKGLILRNKYVNNNKLGYYPTISCFNGGTARIISEEDKLEYLDQIRSAYCVDGNSKVNTLDTLYKEQIAEDIVWDIIDELEQIALQQ
notes: Cps60/Bre2, subunit of COMPASS, S. cerevisiae, full length; source: S. cerevisiae (strain yCOS2), overexpressed from the GAL1-10 promoter; in lysate for the TAP purification; then co-purified with TAP-Set1 as the COMPASS complex
B4: Cps35/Swd2 (natural protein, S. cerevisiae, UniProt P36104 1-329, looked up)
chain: MTTVSINKPNLLKFKHVKSFQPQEKDCGPVTSLNFDDNGQFLLTSSSNDTMQLYSATNCKFLDTIASKKYGCHSAIFTHAQNECIYSSTMKNFDIKYLNLETNQYLRYFSGHGALVNDLKMNPVNDTFLSSSYDESVRLWDLKISKPQVIIPSLVPNCIAYDPSGLVFALGNPENFEIGLYNLKKIQEGPFLIIKINDATFSQWNKLEFSNNGKYLLVGSSIGKHLIFDAFTGQQLFELIGTRAFPMREFLDSGSACFTPDGEFVLGTDYDGRIAIWNHSDSISNKVLRPQGFIPCVSHETCPRSIAFNPKYSMFVTADETVDFYVYDE
notes: Cps35/Swd2, WD40 repeat subunit of COMPASS, S. cerevisiae, full length; source: S. cerevisiae (strain yCOS2), overexpressed from the GAL1-10 promoter; in lysate for the TAP purification; then co-purified with TAP-Set1 as the COMPASS complex
B5: Cps25/Sdc1 (natural protein, S. cerevisiae, UniProt Q03323 1-175, looked up)
chain: MNESENSPQHNEVTVPMVEDTSSNADIPMEQIQREDNKNYDKHDNECFDMNGNHNNNSDNLQFDSVPSSATKDLKNIKSVTNQNVKIEESSSTNSVIEESSEPKISKLENVNLAATVGGSQTRKYLNTNVTPHLLAGMRLIAVQQPEDPLRVLGEYLIEQSNILKSGEKESNASK
notes: Cps25/Sdc1, subunit of COMPASS, S. cerevisiae, full length; source: S. cerevisiae (strain yCOS2), overexpressed from the GAL1-10 promoter; in lysate for the TAP purification; then co-purified with TAP-Set1 as the COMPASS complex
B6: Cps30/Swd3 (natural protein, S. cerevisiae, UniProt P38123 1-315, looked up)
chain: MFQFVTPVGTQNGLKATCAKISPDGQFLAITQGLNILIYDINRRTVSQTLVTSHARPFSELCWSPDGQCIATASDDFSVEIIHLSYGLLHTFIGHTAPVISLTFNRKGNLLFTSSMDESIKIWDTLNGSLMKTISAHSEAVVSVDVPMNDSSILSSGSYDGLIRIFDAETGHCLKTLTYDKDWKRENGVVPISQVKFSENARYLLVKSLDGVVKIWDCIGGCVVRTFQVQPLEKGVLHHSCGMDFLNPEDGSTPLVISGYENGDIYCWNSDTKSLLQLLDGSLYHHSSPVMSIHCFGNIMCSLALNGDCCLWRWV
notes: Cps30/Swd3, WD40 repeat subunit of COMPASS, S. cerevisiae, full length; source: S. cerevisiae (strain yCOS2), overexpressed from the GAL1-10 promoter; in lysate for the TAP purification; then co-purified with TAP-Set1 as the COMPASS complex

How the values were obtained:
Set1 [1] = target: T1, Set1; test: cryo-EM structure; complete COMPASS after GraFix (glutaraldehyde), map at 10.0 Å; subunits placed by DID, PA-NZ-1 Fab and eGFP labelling and by docking of homology models; conditions: both partners purified
Set1 [2] = target: T1, Set1; test: cross-linking; purified COMPASS from the glycerol gradient cross-linked with 1 mM disuccinimidyl suberate (DSS), on ice 2 h; trypsin digest, LC-MS/MS, pLink and xlinkx (XL-MS); conditions: both partners purified
Set1 [3] = target: T1, Set1; test: tandem affinity purification (TAP), SDS-PAGE; yeast lysate; TAP-Set1 held on IgG-Sepharose, washed with 350 mM NaCl, TEV elution, calmodulin-Sepharose, EGTA elution, then glycerol gradient centrifugation; subunits seen by SDS-PAGE; conditions: partners not purified
Cps60/Bre2 = target: B3; test: cross-linking; purified COMPASS from the glycerol gradient cross-linked with 1 mM disuccinimidyl suberate (DSS), on ice 2 h; trypsin digest, LC-MS/MS, pLink and xlinkx (XL-MS); conditions: both partners purified
Cps50/Swd1 = target: B1; test: cryo-EM structure; complete COMPASS after GraFix (glutaraldehyde), map at 10.0 Å; subunits placed by DID, PA-NZ-1 Fab and eGFP labelling and by docking of homology models; conditions: both partners purified

Binder | binding result (Set1 [1]) | binding result (Set1 [2]) | other results
B1 | binds | – | –
B2 | – | binds | –
B3 | – | – | binding result (Set1 [3]): binds
B4 | – | binds | –
B5 | – | binds | binding result (Cps60/Bre2): binds
B6 | binds | – | binding result (Cps50/Swd1): binds
